The supplement of paper PMC9732359
± gives the uncertainty stated by the source.

Experiment: protein stability index of a GFP-peptide fusion (yeast GPS) (PSI 1-4); higher = more stable; sorted into four equal gates, so the index is relative within each strain
Outline: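 Plasmids isolated from each sorting gate were PCR-amplified and Illumina-sequenced, and barcodes assigned the reads to strains. The gates, four of equal size, were set by GFP/Cherry fluorescence ratio on mid-log cultures in leucine-free medium. These cultures were yeast carrying a pooled library of tiled 17-residue yeast protein peptides fused downstream of GFP on a plasmid that also expresses Cherry. The protein stability index is the sum of every gate's read frequency times its gate number.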

Work on NVIDTQRKNGVTNSPLF [ECM29] yielded a protein stability index (doa10∆) of 3 ± 0.25, a protein stability index (pdr5∆) of 3.19 ± 0.091 and a protein stability index (san1∆) of 3.09 ± 0.21. The protein stability index (ubr1∆) was 3.12 ± 0.11.
Work on HEKIEDEDEDNDLDEDD [RPN4] yielded a protein stability index (doa10∆) of 3.56 ± 0.2, a protein stability index (pdr5∆) of 3.44 ± 0.09 and a protein stability index (san1∆) of 3.55 ± 0.086. The protein stability index (ubr1∆) was 3.45 ± 0.11.
With DRLILDLKLPPMDAYLK [SNU114] the protein stability index (doa10∆) was 3.5 ± 0.14, the protein stability index (pdr5∆) was 3.34 ± 0.11 and the protein stability index (san1∆) was 3.01 ± 0.063. For the same sequence, the protein stability index (ubr1∆) was 3.17 ± 0.063.
LSMNIAPRLRLEDIFQQ [RET1] showed a protein stability index (doa10∆) of 2.06 ± 0.05, a protein stability index (pdr5∆) of 1.92 ± 0.038 and a protein stability index (san1∆) of 1.98 ± 0.057. For the same sequence, the protein stability index (ubr1∆) was 2.01 ± 0.037.
Work on FSPDGHIFQVEYALEAV [PRE6] yielded a protein stability index (doa10∆) of 3 ± 0.057, a protein stability index (pdr5∆) of 3.07 ± 0.054 and a protein stability index (san1∆) of 3.1 ± 0.035. The protein stability index (ubr1∆) was 3.18 ± 0.037.
For EKLDVSRSSVCVKAIEA [YCG1], the protein stability index (doa10∆) was 2.54 ± 0.065, the protein stability index (pdr5∆) was 2.16 ± 0.058 and the protein stability index (san1∆) was 2.08 ± 0.079. The protein stability index (ubr1∆) was 2.11 ± 0.058.
Work on TPANNGENAAEKPDNSN [SNF2] yielded a protein stability index (doa10∆) of 1.89 ± 0.075, a protein stability index (pdr5∆) of 2.24 ± 0.098 and a protein stability index (san1∆) of 1.81 ± 0.1. For the same sequence, the protein stability index (ubr1∆) was 2.71 ± 0.068.
For VNITKFSKFERSKSSHK [SKI6], the protein stability index (doa10∆) was 2.73 ± 0.095, the protein stability index (pdr5∆) was 2.65 ± 0.059 and the protein stability index (san1∆) was 2.76 ± 0.064. For the same sequence, the protein stability index (ubr1∆) was 2.62 ± 0.048.
Work on GLNDLVEQYKFRETTHS [BRR2] yielded a protein stability index (doa10∆) of 3.16 ± 0.091, a protein stability index (pdr5∆) of 3.03 ± 0.074 and a protein stability index (san1∆) of 2.84 ± 0.082. For the same sequence, the protein stability index (ubr1∆) was 3.1 ± 0.061.
EVLLAGFGRKGKAKGDI [RPS23A] showed a protein stability index (doa10∆) of 3.41 ± 0.099, a protein stability index (pdr5∆) of 3.24 ± 0.093 and a protein stability index (san1∆) of 3.41 ± 0.045. For the same sequence, the protein stability index (ubr1∆) was 3.22 ± 0.071.
LPMDTNLFKINSIDVPI [YMR129W/POM152] gave a protein stability index (doa10∆) of 1.98 ± 0.048, a protein stability index (pdr5∆) of 1.92 ± 0.035 and a protein stability index (san1∆) of 2.49 ± 0.062. For the same sequence, the protein stability index (ubr1∆) was 1.95 ± 0.045.
For ESNNKKYPIFTGESWVK [YDL088C/ASM4], the protein stability index (doa10∆) was 2.73 ± 0.062, the protein stability index (pdr5∆) was 2.59 ± 0.081 and the protein stability index (san1∆) was 2.33 ± 0.083. For the same sequence, the protein stability index (ubr1∆) was 2.74 ± 0.06.
Work on TTVYRYSAAKKIPDTYT [YAR002W/NUP60] yielded a protein stability index (doa10∆) of 1.34 ± 0.087, a protein stability index (pdr5∆) of 2.07 ± 0.094 and a protein stability index (san1∆) of 1.42 ± 0.14. For the same sequence, the protein stability index (ubr1∆) was 1.45 ± 0.077.
For RASKALIERYYPKLTLD [RPS17A], the protein stability index (pdr5∆) was 2.51 ± 0.14 and the protein stability index (ubr1∆) was 2.37 ± 0.25.
IKKKKKKSKNGTISKTG [SRP14] showed a protein stability index (doa10∆) of 3.16 ± 0.19, a protein stability index (pdr5∆) of 3.17 ± 0.15 and a protein stability index (san1∆) of 3.11 ± 0.1. It also gave a protein stability index (ubr1∆) of 3.54 ± 0.11.
FSFGKSDAAKEPPGSNT [YOR098C/NUP1] showed a protein stability index (pdr5∆) of 3.58 ± 0.16, a protein stability index (san1∆) of 2.84 ± 0.13 and a protein stability index (ubr1∆) of 2.68 ± 0.2.
SSRFIKGGSLYGLGLIY [RPN2] showed a protein stability index (doa10∆) of 2.07 ± 0.09, a protein stability index (pdr5∆) of 2.1 ± 0.088 and a protein stability index (san1∆) of 2.38 ± 0.061. The protein stability index (ubr1∆) was 1.99 ± 0.06.
With KVLARQQLQVLARYLKM [FAS2] the protein stability index (doa10∆) was 1.41 ± 0.081, the protein stability index (pdr5∆) was 1.47 ± 0.083 and the protein stability index (san1∆) was 1.75 ± 0.15. The protein stability index (ubr1∆) was 2.1 ± 0.12.
FYQGKTGVVYNVTKSSV [RPL21A] showed a protein stability index (doa10∆) of 2.69 ± 0.11, a protein stability index (pdr5∆) of 2.58 ± 0.079 and a protein stability index (san1∆) of 2.42 ± 0.086. It also gave a protein stability index (ubr1∆) of 2.65 ± 0.071.
Work on LSERKAEKAEIRKRRAS [RPS6A] yielded a protein stability index (doa10∆) of 3.44 ± 0.17, a protein stability index (pdr5∆) of 3.06 ± 0.23 and a protein stability index (san1∆) of 3.24 ± 0.13. It also gave a protein stability index (ubr1∆) of 3.36 ± 0.14.
With KNDSLEKTINDLQRTQT [YIL149C/MLP2] the protein stability index (doa10∆) was 2.97 ± 0.074, the protein stability index (pdr5∆) was 3.02 ± 0.063 and the protein stability index (san1∆) was 2.82 ± 0.059. It also gave a protein stability index (ubr1∆) of 2.89 ± 0.046.
For GTVGNSHKTTKEDTVSW [RPL11A], the protein stability index (doa10∆) was 3.07 ± 0.095, the protein stability index (pdr5∆) was 3.1 ± 0.095 and the protein stability index (san1∆) was 3.22 ± 0.069. The protein stability index (ubr1∆) was 3.12 ± 0.18.
PKQSDEYLKRVSVPVSG [SIR3] gave a protein stability index (doa10∆) of 3.13 ± 0.086, a protein stability index (pdr5∆) of 2.55 ± 0.089 and a protein stability index (san1∆) of 2.81 ± 0.096. It also gave a protein stability index (ubr1∆) of 2.72 ± 0.14.
With DDLEKTLDKKDSIPLRI [RPN9] the protein stability index (pdr5∆) was 2.3 ± 0.14, the protein stability index (san1∆) was 2.94 ± 0.11 and the protein stability index (ubr1∆) was 2.33 ± 0.11.
Sequence KSESDELQMRSFLKEGD [RRP4] has a protein stability index (doa10∆) of 3.18 ± 0.13, a protein stability index (pdr5∆) of 2.71 ± 0.23 and a protein stability index (san1∆) of 3.09 ± 0.12. It also gave a protein stability index (ubr1∆) of 3.16 ± 0.096.
With ATTSVMMVNNQTMQLIK [SRB6] the protein stability index (doa10∆) was 3.09 ± 0.16, the protein stability index (pdr5∆) was 2.1 ± 0.17 and the protein stability index (san1∆) was 2.12 ± 0.1.
YQNRSTRSQFCLNTQRG [RRI1] gave a protein stability index (doa10∆) of 2.8 ± 0.054, a protein stability index (pdr5∆) of 3.09 ± 0.063 and a protein stability index (san1∆) of 3.1 ± 0.046. It also gave a protein stability index (ubr1∆) of 2.97 ± 0.034.
For TKIFNSVAEVFQKAQGS [YCG1], the protein stability index (doa10∆) was 1.89 ± 0.12, the protein stability index (pdr5∆) was 1.55 ± 0.23 and the protein stability index (ubr1∆) was 1.5 ± 0.07.
SGNGSNPNTNTNSNNTP [PGD1] showed a protein stability index (doa10∆) of 2.78 ± 0.062, a protein stability index (pdr5∆) of 3 ± 0.056 and a protein stability index (san1∆) of 2.95 ± 0.038. The protein stability index (ubr1∆) was 2.87 ± 0.041.
With KRNSDKVEYKIVHDDPA [ITC1] the protein stability index (doa10∆) was 2.12 ± 0.072, the protein stability index (pdr5∆) was 2.02 ± 0.083 and the protein stability index (san1∆) was 1.95 ± 0.13. The protein stability index (ubr1∆) was 1.27 ± 0.053.
Work on VGVDQLSIELEGGKNQA [YJL039C/NUP192] yielded a protein stability index (doa10∆) of 3.08 ± 0.27, a protein stability index (pdr5∆) of 3.23 ± 0.16 and a protein stability index (san1∆) of 3.06 ± 0.076. The protein stability index (ubr1∆) was 2.46 ± 0.14.
Work on DEAKDFIVSGTASDQLF [PUP3] yielded a protein stability index (doa10∆) of 2.74 ± 0.089, a protein stability index (pdr5∆) of 2.83 ± 0.07 and a protein stability index (san1∆) of 2.57 ± 0.096. For the same sequence, the protein stability index (ubr1∆) was 2.92 ± 0.076.
Sequence LISSSGPIKTPVGACAT [FAS2] has a protein stability index (doa10∆) of 1.76 ± 0.053, a protein stability index (pdr5∆) of 1.76 ± 0.11 and a protein stability index (san1∆) of 1.31 ± 0.098. It also gave a protein stability index (ubr1∆) of 2.17 ± 0.071.
Work on LNRLLRLIVDPNIADYI [PRP8] yielded a protein stability index (doa10∆) of 1.83 ± 0.057, a protein stability index (pdr5∆) of 1.93 ± 0.05 and a protein stability index (san1∆) of 1.64 ± 0.091. The protein stability index (ubr1∆) was 1.95 ± 0.044.
DNDRFNVVGKLISIISS [YML103C/NUP188] gave a protein stability index (doa10∆) of 1.3 ± 0.064, a protein stability index (pdr5∆) of 1.24 ± 0.073 and a protein stability index (san1∆) of 1.21 ± 0.081. For the same sequence, the protein stability index (ubr1∆) was 1.2 ± 0.047.
NNNEDNENNNNSSEKNN [MED2] gave a protein stability index (doa10∆) of 3.11 ± 0.052, a protein stability index (pdr5∆) of 3.37 ± 0.043 and a protein stability index (san1∆) of 3.2 ± 0.039. For the same sequence, the protein stability index (ubr1∆) was 3.15 ± 0.048.
NNSTGIANDNVITPHFI [SWI1] gave a protein stability index (doa10∆) of 2.69 ± 0.041, a protein stability index (pdr5∆) of 2.95 ± 0.042 and a protein stability index (san1∆) of 2.86 ± 0.031. For the same sequence, the protein stability index (ubr1∆) was 2.9 ± 0.033.
In the case of FFYNISSIHWNNWFSLP [SIN4], the protein stability index (doa10∆) is reported as 2.09 ± 0.036, the protein stability index (pdr5∆) is reported as 1.96 ± 0.038 and the protein stability index (san1∆) is reported as 2.03 ± 0.05. It also gave a protein stability index (ubr1∆) of 2.13 ± 0.036.
With NIRNNIESQNLDLIPHS [SRB4] the protein stability index (doa10∆) was 2.62 ± 0.052, the protein stability index (pdr5∆) was 2.92 ± 0.046 and the protein stability index (san1∆) was 2.62 ± 0.05. The protein stability index (ubr1∆) was 2.7 ± 0.029.
Sequence LADWRIRPLSKPMTAYA [RRP6] has a protein stability index (doa10∆) of 2.82 ± 0.13, a protein stability index (pdr5∆) of 3.15 ± 0.13 and a protein stability index (san1∆) of 2.7 ± 0.19. It also gave a protein stability index (ubr1∆) of 2.98 ± 0.088.
In the case of MTAAVTSSNIVLETHES [RPT6], the protein stability index (doa10∆) is reported as 2.65 ± 0.094, the protein stability index (pdr5∆) is reported as 2.78 ± 0.057 and the protein stability index (san1∆) is reported as 2.79 ± 0.081. It also gave a protein stability index (ubr1∆) of 2.48 ± 0.059.
For SSLALVFALHKYKPTPL [SMC4], the protein stability index (doa10∆) was 2.18 ± 0.052, the protein stability index (pdr5∆) was 2.18 ± 0.074 and the protein stability index (san1∆) was 2.17 ± 0.088. The protein stability index (ubr1∆) was 2.93 ± 0.055.
FMEIVLEYNVALNDVYL [YML031W/NDC1] showed a protein stability index (doa10∆) of 2.47 ± 0.09, a protein stability index (pdr5∆) of 2.3 ± 0.084 and a protein stability index (san1∆) of 2.22 ± 0.11. The protein stability index (ubr1∆) was 1.66 ± 0.064.
Sequence FMLRKQDPKTLVALLSR [SSN2] has a protein stability index (doa10∆) of 1.6 ± 0.055, a protein stability index (pdr5∆) of 1.84 ± 0.041 and a protein stability index (san1∆) of 1.85 ± 0.079. It also gave a protein stability index (ubr1∆) of 2.09 ± 0.043.
Sequence VIVPLSTLSNWSSEFAK [SNF2] has a protein stability index (doa10∆) of 2.65 ± 0.049, a protein stability index (pdr5∆) of 2.35 ± 0.06 and a protein stability index (san1∆) of 2.52 ± 0.051. For the same sequence, the protein stability index (ubr1∆) was 2.6 ± 0.038.
In the case of KDLETLYNKIWTEASSS [ECM29], the protein stability index (doa10∆) is reported as 3.24 ± 0.2, the protein stability index (pdr5∆) is reported as 2.84 ± 0.14 and the protein stability index (san1∆) is reported as 2.71 ± 0.091. The protein stability index (ubr1∆) was 2.51 ± 0.083.
